Measured values as given in patent US20240109978A1.

Target: CD19 on NALM-6 cells (CD19+ B lineage, acute lymphoblastic leukemia) (UniProt P15391)
Assay: cell-based or functional assay

Chain of UniProt P15391 (P15391 20-556 limits assumed): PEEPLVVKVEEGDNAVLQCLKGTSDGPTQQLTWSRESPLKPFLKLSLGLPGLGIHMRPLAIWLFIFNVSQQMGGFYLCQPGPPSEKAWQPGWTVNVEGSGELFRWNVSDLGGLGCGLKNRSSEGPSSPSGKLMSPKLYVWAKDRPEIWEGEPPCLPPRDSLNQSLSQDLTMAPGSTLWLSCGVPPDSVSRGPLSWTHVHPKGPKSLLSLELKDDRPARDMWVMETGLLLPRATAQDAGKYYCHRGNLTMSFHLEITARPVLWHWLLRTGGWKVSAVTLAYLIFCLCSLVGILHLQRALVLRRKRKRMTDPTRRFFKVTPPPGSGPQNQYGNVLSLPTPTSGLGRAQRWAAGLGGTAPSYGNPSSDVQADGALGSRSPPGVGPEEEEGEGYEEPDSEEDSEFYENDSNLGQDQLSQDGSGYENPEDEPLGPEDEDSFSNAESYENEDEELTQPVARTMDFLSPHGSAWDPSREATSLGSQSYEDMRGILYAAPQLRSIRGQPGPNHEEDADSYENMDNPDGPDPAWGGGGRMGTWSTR

IgG1-based CAR (FMC63 scFv, IgG1-CH2-CH3 spacer, CD28 transmembrane and intracellular domains, and CD3zeta-signaling domain) (receptor)
killing efficacy against NALM-6 cells, 18 h co-culture, 2:1 (E:T) ratio (luciferase): 100%
